According to patent publication US20220162338A1 (SICHUAN KELUN BIOTECH BIOPHARMACEUTICAL, published 2022):
Positions count from the first letter of the chain named. Numbers in names are those of the source.

How the values were obtained:
[1] = target: T1, human FXIa (activated human coagulation Factor XI) (human, UniProt P03951 19-387; P03951 388-625); experiment: ELISA, FXIa coated at 1 µg/mL, HRP goat-anti-human detection
T1 construct: Bought protein; also called FXIa protein; FXIa antigen

[2] = target: T2, human FXI (human coagulation Factor XI) (human, UniProt P03951 19-625); experiment: BLI (Octet Fortebio), antibody on AHC (anti-human-Fc) sensor, FXI in solution
T2 construct: Bought protein; Biotin-labeled form (HCXI-0150-B) was used in the hybridoma screen; also called FXI protein; FXI antigen
Protocol: Octet Fortebio® was used for the affinity determination of chimeric and humanized antibodies. […] The data obtained were analyzed by Octet data analysis software.

[3] = target: T1, human FXIa (activated human coagulation …); experiment: cell-based or functional assay
[4] = target: T1, human FXIa (activated human coagulation …); experiment: cell-based or functional assay; remark: listed apart in the source
[5] = target: T3, human FXI antigen expressed in 293F cells (human, UniProt P03951 19-625, limits assumed); experiment: ELISA, FXI antigen (293F) coated at 1 µg/mL, HRP goat-anti-human detection
T3 construct: also called FXI antigen (PMD-F11 plasmid cloned into PLVX-IRES-PURO, 293F)

[6] = target: T1, human FXIa (activated human coagulation …); experiment: cell-based or functional assay; remark: listed apart in the source
[7] = target: T1, human FXIa (activated human coagulation …); experiment: BLI (Octet ForteBio), biotin-labeled antibody on streptavidin sensor, FXIa in solution, bivalent model
Protocol: (§1) The specific experimental steps were as follows: the streptavidin biosensors was first bound with the biotin-labeled antibody to be tested to reach a response signal value of 0.8 nm, then bound with FXIa protein (3.2, 1.6, 0.8, 0.4, 0.2, 0.1, 0.05, and 0 μg/mL) for 5 minutes, then dissociation was performed for 7 minutes, and the bivalent analysis model was used for all fitting analysis.

[8] = target: T1, human FXIa (activated human coagulation …); experiment: BLI (Octet ForteBio), ratio of KD against BAY-1213790
Protocol: as §1

[9] = target: T1, human FXIa (activated human coagulation …); experiment: BLI (Octet ForteBio), ratio of KD against 14E11
Protocol: as §1

B1: humanized antibody 36G9.10-hz73 (antibody, human IgG1, kappa, N297A, V domains shown)
VH: EVQLVQSGAEVKKPGATVKISCKASGFNIKDTYIHWVQQAPGKGLEWMGRIDPANDNTIYAEKFQGRVTITADTSTNTAYMELSSLRSEDTAVYYCAQDYDGFAMDYWGQGTLVTVSS
VL: DIQMTQSPSSLSASVGDRVTITCKASQDINKYITWFQQKPGKAPKLLIHYTSTLQPGVPSRFSGSGSGRDYTLTISSLQPEDFATYYCLQYDYLLTFGGGTKVEIKR
**Q.** Which results are given for B1?
**A.** EC50 [1]: 2.49 ng/mL; Kd [2]: 10.3 pM; koff [2]: 6.51e-05 s⁻¹; kon [2]: 6.31e+06 M⁻¹ s⁻¹; APTT in human plasma, fold prolongation [3]: 2.2 times; APTT detection (EC50, nM), sample at 0 days [4]: 18.4 nM; APTT detection (EC50, nM), sample stored at 25° C. for 28 days [4]: 17.4 nM; APTT detection (EC50, nM), sample stored at 40° C. for 14 days [4]: 20.3 nM; APTT detection (EC50, nM), sample stored at 40° C. for 28 days [4]: 26.9 nM; EC50 [5]: 9.68 ng/mL; IC50 value (ng/mL), inhibition of the catalytic effect of FXIa on fluorescent substrate I-1575 [6]: 26.2 ng/mL

B2: humanized antibody 36G9.10-hz43 (antibody, human IgG1, kappa, N297A, V domains shown)
VH: QVQLVQSGAEVKKPGASVKVSCKASGFNIKDTYIHWVRQAPGQGLEWIGRIDPANDNTNYAQKFQGRVTMTADTSINTAYMELSRLRSDDTAVYYCAQDYDGFAMDYWGQGTLVTVSS
VL: B1 VL
**Q.** Which Kd [2] does the source give for B2 here?
**A.** Its Kd is 44.1 pM.

**Q.** And the koff [2]?
**A.** Its koff is 0.000255 s⁻¹.

**Q.** And the kon [2]?
**A.** Its kon is 5.77e+06 M⁻¹ s⁻¹.

B3: humanized antibody 36G9.10-hz74 (antibody, human IgG1, kappa, N297A, V domains shown)
VH: B1 VH
VL: B1 VL with F36Y, H49Y, R69T, Y71F, L73F, F83I
**Q.** Which Kd [2] does the source give for B3 here?
**A.** Its Kd is 7.98 pM.

**Q.** What about the koff [2] of the same binder?
**A.** The koff was 5.16e-05 s⁻¹.

**Q.** What about the kon [2] of the same binder?
**A.** The kon was 6.47e+06 M⁻¹ s⁻¹.

B4: humanized antibody 36G9.10-hz92 (antibody, human IgG1, kappa, N297A, V domains shown)
VH: B1 VH with M48I, I59K, A61D, E62P
VL: B1 VL with R69T, Y71F
**Q.** What does the source list for B4?
**A.** Kd [2]: 15.2 pM; koff [2]: 7.69e-05 s⁻¹; kon [2]: 5.07e+06 M⁻¹ s⁻¹

B5: humanized antibody 36G9.10-hz93 (antibody, human IgG1, kappa, N297A, V domains shown)
VH: B1 VH with M48I, I59K, A61D, E62P
VL: B1 VL
**Q.** With B5 as the binder, how does the Kd [2] read?
**A.** The Kd was 8.81 pM.

**Q.** What about the koff [2] of the same binder?
**A.** The koff was 5.34e-05 s⁻¹.

**Q.** What about the kon [2] of the same binder?
**A.** Its kon is 6.06e+06 M⁻¹ s⁻¹.

B6: BAY-1213790 (antibody, V domains shown)
VH: EVQLLESGGGLVQPGGSLRLSCAASGFTFSQYGMDWVRQAPGKGLEWVSGIGPSGGSTVYADSVKGRFTISRDNSKNTLYLQMNSLRAEDTAVYYCTRGGPYYYYGMDVWGQGTTVTVSS
VL: DIQMTQSPSSLSASVGDRVTITCQASQDISNYLNWYQQKPGKAPKLLIYDASNLETGVPSRFSGSGSGTDFTFTISSLQPEDIATYYCQQADSFPVTFGGGTKVEIKR
**Q.** For B6, which EC50 [1] is on record?
**A.** The EC50 was 6.16 ng/mL.

**Q.** And the Kd [2]?
**A.** The Kd was 374 pM.

**Q.** What about the koff [2] of the same binder?
**A.** The koff was 0.00034 s⁻¹.

**Q.** And the kon [2]?
**A.** The kon was 910000 M⁻¹ s⁻¹.

**Q.** What about the “IC50 value (ng/mL), inhibition of the catalytic effect of FXIa on fluorescent substrate I-1575” value [6] of the same binder?
**A.** Its value is 70 ng/mL.

**Q.** What about the Kd [7] of the same binder?
**A.** The Kd was 1190 pM.

**Q.** What about the koff [7] of the same binder?
**A.** The koff was 0.00109 s⁻¹.

**Q.** And the kon [7]?
**A.** The kon was 918000 M⁻¹ s⁻¹.

B7: murine antibody 36G9.10 (antibody, mouse IgG1, V domains shown)
VH: EVQLQQSGAELVKPGASVKLSCTASGFNIKDTYIHWVKQRPEQGLEWIGRIDPANDNTKYDPKFQGKATITADTSSNTAYLQLSSLTSEDSAVYYCAQDYDGFAMDYWGQGTSVTVSS
VL: DIQMTQSPSSLSASLGGKVTITCKASQDINKYITWFQHKPGKGPRLLIHYTSTLQPGIPSRFSGSGSGRDYSFSISNLEPEDSATYYCLQYDYLLTFGGGTKLEIK
notes: also called 36G9.10 murine antibody; murine anti-human FXI/FXIa monoclonal antibody
**Q.** B7 was tested. Which “fold stronger affinity than BAY-1213790” value [8] did it give?
**A.** Its value is 2.5 times.

**Q.** What about the Kd [7] of the same binder?
**A.** Its Kd is 480 pM.

**Q.** And the koff [7]?
**A.** Its koff is 0.00072 s⁻¹.

**Q.** What about the kon [7] of the same binder?
**A.** Its kon is 1.5e+06 M⁻¹ s⁻¹.

**Q.** What about the “fold stronger affinity than 14E11” value [9] of the same binder?
**A.** Its value is 1.7 times.

B8: chimeric antibody 36G9.10-hz00 (antibody, human IgG1, kappa, N297A, V domains shown)
VH: B7 VH
VL: DIQMTQSPSSLSASLGGKVTITCKASQDINKYITWFQHKPGKGPRLLIHYTSTLQPGIPSRFSGSGSGRDYSFSISNLEPEDSATYYCLQYDYLLTFGGGTKLEIKR
notes: Murine variable regions grafted to human IgG1 (N297A) and human kappa constant regions
**Q.** What does the source list for B8?
**A.** Kd [2]: 3.66 pM; koff [2]: 2.39e-05 s⁻¹; kon [2]: 6.52e+06 M⁻¹ s⁻¹
